To fix the notation:
T1: human lysozyme (human, UniProt P61626 19-148)
T1 sequence (looked up): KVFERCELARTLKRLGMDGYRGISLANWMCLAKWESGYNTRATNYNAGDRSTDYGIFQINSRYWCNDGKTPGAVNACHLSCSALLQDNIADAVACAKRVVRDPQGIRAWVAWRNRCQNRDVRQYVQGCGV

T2: biotinylated GYSLPQPQPPPPPPPPPP peptide (also: biotinylated, position not given here)
T2 construct: also called HTT exon1 in the form of biotinylated peptide
T2 peptide: GYSLPQPQPPPPPPPPPP

B1: ATL_0005901 (antibody, V domains shown)
VH: EVQLVESGGGLVKPGGSLRLSCAASGFTFNKAWMSWVRQAPGKGLEWVGRIKSGIDAGTTDYAAPVKGRFTISRDDSKATLYLQMNSLKTEDTAVYYCIPPPYYYYYGLDVWGQGTTVTVSS
VL: QSALTQPASVSGSPGQSITISCTGTSSDVGGYKLVSWYQQHPGRAPKLMIYEVSKRPSGVSSRFSGSKSGSTASLTISGLQAEDEADYYCSSYAGSSVVFGGGTKLTVL
notes: human IgG1; also called ATL_5901; ATL5901
B2: ATL_0005567 (antibody, V domains shown)
VH: B1 VH with S35N, A57G, K67Q, A79N, L81V, K89N
VL: QSALTQPASVSGSPGQSITISCTGTSSDIGSYNLVSWYQQHPGNAPKPLIYEGSKRPSGVSARFSGSKSGNTASLTISGLQPEDEADYYCSSYAGFSTLVFGGGTKVTVL
notes: human IgG1; also called ATL_5567; ATL5567
B3: ATL_0005059/NI-302.8F1 (antibody, V domains shown)
VH: EVQLVESGGGLVKPGGSLTISCAASGFTFSNAWMNWVRQAPGKGLEWVGHIRTQAEGGTSDYAAPVKGRFTISRDDSKNTLYLQMNSLKTEDTAVYYCIPPPYYYYYGLDVWGQGTTVTVSS
VL: QSALTQPASVSGSPGQSITISCTGASSDVGTYDLVSWYQQHPGKAPKLIIYEVNKRPSGVSYRFSASKSANTASLTISGLQAEDEAEYYCCSYAGYSTVFGGGTKLTVL
notes: also called ATL_5059; CA_0000274
B4: ATL_0006195 (antibody, V domains shown)
VH: B1 VH with A79N, I99T
VL: QSALTQPRSVSGSPGQSVTISCTGTSSDVGSYNLVSWYQQHPGKAPKLMIYEVNKRPSGVPDRFSGSKSGATASLTISGLQAEDEADYYCGSYAGTANVFGTGTKVTVL
notes: expressed in IgG1 format; also called ATL_6195
B5: ATL_0006194 (antibody, V domains shown)
VH: B1 VH with A79N, I99V
VL: B4 VL with G91V
notes: expressed in IgG1 format; also called ATL_6194; ATL6194
B6: ATL_0006204 (antibody, V domains shown)
VH: B1 VH with A79N
VL: B4 VL with G91V, Y93F
notes: expressed in IgG1 format; also called ATL_6204
B7: ATL_0006199 (antibody, V domains shown)
VH: B1 VH with A79N, Y97W, I99S
VL: B4 VL
notes: expressed in IgG1 format; also called ATL_6199
B8: ATL_0006202 (antibody, IgG1, V domains shown)
VH: B1 VH with A79N, I99S, Y103F
VL: B4 VL with G91V, A94G, A97E
notes: IgG1 format; also called ATL_6202
B9: ATL_0006205 (antibody, IgG1, V domains shown)
VH: B1 VH with A79N, Y97W, I99V
VL: B4 VL with G91V
notes: IgG1 format; also called ATL_6205
B10: ATL_0006200 (antibody, V domains shown)
VH: B1 VH with A79N, I99V
VL: B4 VL
notes: expressed in IgG1 format; also called ATL_6200
B11: ATL_0006203 (antibody, V domains shown)
VH: B1 VH with A79N, P101S
VL: B4 VL with G91V
notes: expressed in IgG1 format; also called ATL_6203
B12: ATL_0006377 (antibody, V domains shown)
VH: B1 VH with A79N, I99V, P101S
VL: B4 VL with G91V
notes: also called ATL_6377
B13: ATL_0006376 (antibody, V domains shown)
VH: B1 VH with A79N, I99V, Y103F
VL: B4 VL with G91V, A94G, A97E
notes: also called ATL_6376
B14: ATL_0005334 (antibody, V domains shown)
VH: B1 VH with S35N, A57G, K67Q, A79N, L81V, K89N
VL: B1 VL with S91C
notes: human IgG1; also called ATL_5334
B15: ATL_0006374 (antibody, V domains shown)
VH: B1 VH with A79N, Y97W, I99V
VL: B4 VL with G91V, A94G, A97E
notes: also called ATL_6374; ATL 6374
B16: ATL_0006375 (antibody, V domains shown)
VH: B1 VH with A79N, I99V
VL: B4 VL with G91V, A94G, A97E
notes: also called ATL_6375
B17: ATL_0006378 (antibody, V domains shown)
VH: B1 VH with A79N, I99V, P101S
VL: B4 VL with G91V, A94G, A97E
notes: also called ATL_6378; ATL 6378
B18: ATL_0006183 (antibody, V domains shown)
VH: EVQLVESGGGLVKPGGSLRLSCAASGFTFNKAWMSWVRQAPGKGLEWVGRIKSGIDAGTTDYAAPVKGRFTISRDDSKNTLYLQMNSLKTEDTAVYYCTPPPYYYYGLDVWGQGTTVTVSS
VL: B4 VL
notes: HD patient (ENBB) HCDR3 in ATL5895 VH, ATL5895 VL; also called ATL_6183; ATL6183
B19: ATL_0006185 (antibody, V domains shown)
VH: B18 VH with D109N
VL: B4 VL
notes: HD patient (ENBB) HCDR3 in ATL5895 VH, ATL5895 VL; also called ATL_6185; ATL6185
B20: ATL_0006184 (antibody, V domains shown)
VH: B18 VH with N79A
VL: B1 VL
notes: HD patient (ENBB) HCDR3 in ATL5901 VH, ATL5901 VL; also called ATL_6184; ATL6184
B21: ATL_0006186 (antibody, V domains shown)
VH: B18 VH with N79A, D109N
VL: B1 VL
notes: HD patient (ENBB) HCDR3 in ATL5901 VH, ATL5901 VL; also called ATL_6186; ATL6186

Positions count from the first letter of the chain named. Where no end group is shown, it is not given here.

T3 sequence (chain, as listed by the source mutant limits assumed): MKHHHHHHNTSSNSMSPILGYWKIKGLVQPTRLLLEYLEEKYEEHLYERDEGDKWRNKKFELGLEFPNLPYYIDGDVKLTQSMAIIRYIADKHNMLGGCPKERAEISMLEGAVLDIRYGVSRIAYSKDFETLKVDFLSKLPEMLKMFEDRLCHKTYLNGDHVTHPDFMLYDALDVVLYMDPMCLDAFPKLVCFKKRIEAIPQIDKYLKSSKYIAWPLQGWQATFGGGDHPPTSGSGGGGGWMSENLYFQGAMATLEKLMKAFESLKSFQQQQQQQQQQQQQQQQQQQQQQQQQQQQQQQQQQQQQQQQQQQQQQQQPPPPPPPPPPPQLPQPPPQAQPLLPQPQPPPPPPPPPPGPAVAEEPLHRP

One assay addresses T3, Mutant Human HTT Exon 1 48Q (GST) (human).
T3 construct: recombinant His- and GST-tagged fusion; also called HTT Exon 1 Q48; 48Q HTT Exon-1
Put plainly: HTT sandwich ELISA, biological repeat 1.
The molecule B1 gave an EC50 of 1.25 nM.
B2 registered a half-maximal effective concentration (EC50) of 8.7 nM.
The same measure, in the same setting: to B3 belongs 18.1 nM.

Another assay deals with T4, WT Human HTT Exon 1 25Q (GST) (human).
T4 construct: recombinant His- and GST-tagged fusion; also called Wild type Huntingtin (HTT) exon 1
T4 sequence (chain, as listed by the source limits assumed, change not shown): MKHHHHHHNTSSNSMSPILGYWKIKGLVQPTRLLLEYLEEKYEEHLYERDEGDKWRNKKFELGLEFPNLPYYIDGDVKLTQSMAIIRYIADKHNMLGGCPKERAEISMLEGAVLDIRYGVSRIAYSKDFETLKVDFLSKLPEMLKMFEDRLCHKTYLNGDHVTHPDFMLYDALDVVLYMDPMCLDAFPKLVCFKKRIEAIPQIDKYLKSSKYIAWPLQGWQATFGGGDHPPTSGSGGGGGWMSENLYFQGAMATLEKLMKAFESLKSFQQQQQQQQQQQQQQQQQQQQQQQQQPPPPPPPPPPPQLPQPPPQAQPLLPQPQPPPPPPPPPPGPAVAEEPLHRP
Put plainly: HTT sandwich ELISA, biological repeat 3.
The molecule B1 yielded an EC50 of 4.73 nM.
On to B2, for which the EC50 was found to be 5.95 nM.

Another assay deals with T3, Mutant Human HTT Exon 1 48Q (GST). Briefly: HTT sandwich ELISA, experiment 2 (400 nM starting concentration).
For B4, a half-maximal response (EC50) required 14.7 nM.
Turning to B5, the response was half-maximal at 14 nM (EC50).
On to B6, for which a half-maximal effect (EC50) was put at 12.2 nM.
As to B7, the midpoint of the response, the EC50, lay at 13.1 nM.
Same read-out and setting: to B8 belongs 13.5 nM.
The same measure, in the same setting: the value for B9 was 16.4 nM; that for B10 was 9.75 nM; that for B11 was 8.72 nM.

The target of a further assay is T1, human lysozyme. Briefly: direct ELISA.
On to B12, for which the binding result was “no binding (tested: less than 1 µM)”.
On to B13, for which the binding result is reported as “no binding (tested: less than 1 µM)”.

A further assay addresses T3, Mutant Human HTT Exon 1 48Q (GST). Put plainly: ELISA.
For B14, the binding result was “binds”.

The target in another assay is T2, biotinylated GYSLPQPQPPPPPPPPPP peptide. Briefly: BLI (Octet), biotinylated peptide on streptavidin biosensor.
As to B4, the binding result is “binds”.
For B5, the binding result is on record as “binds”.
As to B6, the binding result was “binds”.
Consider B7, for which the binding result was “binds”.
On to B8, for which the binding result is listed as “binds”.
For the molecule B9, the binding result is recorded as “binds”.
As to B10, the binding result is reported as “binds”.
Turning to B11, the binding result was “binds”.
Take B15: the binding result is on record as “binds”.

The target in another assay is T5, CACNA1A (human, UniProt O00555 1-2506).
T5 construct: whole, on cells; also called Another poly Q protein
T5 sequence (O00555 whole entry): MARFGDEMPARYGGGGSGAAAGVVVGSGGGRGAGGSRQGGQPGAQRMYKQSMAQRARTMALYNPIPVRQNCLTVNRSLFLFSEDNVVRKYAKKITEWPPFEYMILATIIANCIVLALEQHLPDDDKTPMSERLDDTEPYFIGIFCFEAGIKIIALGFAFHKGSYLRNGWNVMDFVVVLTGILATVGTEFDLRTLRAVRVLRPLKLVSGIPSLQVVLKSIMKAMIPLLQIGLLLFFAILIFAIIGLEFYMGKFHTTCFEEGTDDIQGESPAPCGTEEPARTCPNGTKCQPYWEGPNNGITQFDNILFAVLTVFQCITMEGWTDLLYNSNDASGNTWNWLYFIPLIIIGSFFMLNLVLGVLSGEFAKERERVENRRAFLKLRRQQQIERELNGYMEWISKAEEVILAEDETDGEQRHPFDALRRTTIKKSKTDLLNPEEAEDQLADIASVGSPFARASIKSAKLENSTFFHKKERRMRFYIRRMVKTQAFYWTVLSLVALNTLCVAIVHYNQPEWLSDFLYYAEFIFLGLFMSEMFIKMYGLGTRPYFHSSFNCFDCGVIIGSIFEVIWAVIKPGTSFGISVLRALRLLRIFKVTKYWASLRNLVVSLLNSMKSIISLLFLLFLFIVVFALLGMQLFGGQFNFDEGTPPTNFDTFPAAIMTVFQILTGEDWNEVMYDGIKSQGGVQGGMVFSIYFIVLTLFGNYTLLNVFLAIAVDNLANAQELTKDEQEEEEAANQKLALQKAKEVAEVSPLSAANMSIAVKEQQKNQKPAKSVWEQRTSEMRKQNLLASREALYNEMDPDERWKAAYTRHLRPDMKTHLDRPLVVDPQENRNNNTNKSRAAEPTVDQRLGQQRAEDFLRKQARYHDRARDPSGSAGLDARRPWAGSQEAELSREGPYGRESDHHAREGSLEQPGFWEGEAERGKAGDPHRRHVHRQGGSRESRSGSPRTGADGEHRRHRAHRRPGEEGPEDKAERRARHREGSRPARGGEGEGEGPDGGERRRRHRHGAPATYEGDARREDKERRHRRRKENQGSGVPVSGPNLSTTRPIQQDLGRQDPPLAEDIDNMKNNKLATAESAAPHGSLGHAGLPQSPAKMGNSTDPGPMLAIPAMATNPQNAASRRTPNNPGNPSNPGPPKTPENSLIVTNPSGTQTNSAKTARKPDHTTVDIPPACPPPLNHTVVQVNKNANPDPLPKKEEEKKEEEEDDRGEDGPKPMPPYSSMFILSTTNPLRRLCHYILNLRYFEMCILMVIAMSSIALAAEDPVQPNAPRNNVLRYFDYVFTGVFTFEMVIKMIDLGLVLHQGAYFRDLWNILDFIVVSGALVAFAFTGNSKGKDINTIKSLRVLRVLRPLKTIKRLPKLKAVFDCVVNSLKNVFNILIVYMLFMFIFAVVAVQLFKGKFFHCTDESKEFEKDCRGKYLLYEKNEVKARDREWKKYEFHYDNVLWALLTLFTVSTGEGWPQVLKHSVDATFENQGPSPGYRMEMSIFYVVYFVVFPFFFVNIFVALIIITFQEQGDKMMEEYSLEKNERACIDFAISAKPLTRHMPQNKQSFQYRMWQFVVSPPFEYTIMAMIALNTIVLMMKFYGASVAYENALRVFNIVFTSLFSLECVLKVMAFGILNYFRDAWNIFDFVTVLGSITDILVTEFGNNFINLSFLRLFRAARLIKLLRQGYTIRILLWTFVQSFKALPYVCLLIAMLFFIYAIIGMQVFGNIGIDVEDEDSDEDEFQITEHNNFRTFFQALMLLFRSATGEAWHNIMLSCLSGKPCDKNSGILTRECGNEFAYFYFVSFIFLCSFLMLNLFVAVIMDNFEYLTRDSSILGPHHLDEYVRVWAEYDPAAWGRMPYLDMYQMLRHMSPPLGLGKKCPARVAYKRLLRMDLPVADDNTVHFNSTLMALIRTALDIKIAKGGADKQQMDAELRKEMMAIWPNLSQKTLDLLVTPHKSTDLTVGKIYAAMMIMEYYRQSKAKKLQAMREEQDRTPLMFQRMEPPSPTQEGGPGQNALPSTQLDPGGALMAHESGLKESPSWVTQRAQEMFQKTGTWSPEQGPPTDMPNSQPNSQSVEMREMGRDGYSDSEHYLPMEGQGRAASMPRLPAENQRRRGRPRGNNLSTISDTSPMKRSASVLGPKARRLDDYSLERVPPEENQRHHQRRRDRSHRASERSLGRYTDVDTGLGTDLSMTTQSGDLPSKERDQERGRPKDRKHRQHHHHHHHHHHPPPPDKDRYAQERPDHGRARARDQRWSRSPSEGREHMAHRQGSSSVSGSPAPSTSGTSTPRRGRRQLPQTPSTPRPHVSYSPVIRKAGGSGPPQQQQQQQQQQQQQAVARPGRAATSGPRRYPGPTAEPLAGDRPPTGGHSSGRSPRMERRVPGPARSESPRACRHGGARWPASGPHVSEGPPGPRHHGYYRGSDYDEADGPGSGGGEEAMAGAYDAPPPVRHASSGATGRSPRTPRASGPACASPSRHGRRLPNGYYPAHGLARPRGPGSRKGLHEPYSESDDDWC
Put plainly: Retrogenix cell microarray, HEK293 cells.
Take B2: the binding result was “no binding (tested: 5 µg/mL antibody)”.

A further assay has as its target T4, WT Human HTT Exon 1 25Q (GST). Put plainly: HTT sandwich ELISA, average (one repeat assessed).
With B3, the EC50 came out at 19.3 nM.

A further assay addresses T3, Mutant Human HTT Exon 1 48Q (GST). Put plainly: HTT sandwich ELISA.
Consider B16, for which the EC50 amounted to 20.1 nM.
B17 showed an EC50 of 38.9 nM.
In the case of B12, the midpoint of the response, the EC50, lay at 23.8 nM.
As for B13, it took 11.5 nM to reach a half-maximal effect (EC50).
B15 gave an EC50 of 31.1 nM.

Another assay addresses T4, WT Human HTT Exon 1 25Q (GST). Put plainly: HTT sandwich ELISA, average of repeats.
Turning to B1, the EC50 was found to be 4.92 nM.
The molecule B2 displayed an EC50 of 7.57 nM.

The target in the next assay is T3, Mutant Human HTT Exon 1 48Q (GST). Briefly: HTT sandwich ELISA, biological repeat 2.
The molecule B2 came in with an EC50 of 6.55 nM.
Turning to B3, the EC50 amounted to 16.2 nM.

The next assay shares this target. Put plainly: HTT sandwich ELISA; EC50 on HTT Exon 1 25Q over EC50 on HTT Exon 1 48Q.
B1: the “Ratio of EC50 for 25Q:48Q HTT Exon 1” value is 2.05.
For the molecule B2, the “Ratio of EC50 for 25Q:48Q HTT Exon 1” value was determined as 1.18.
As to B3, the “Ratio of EC50 for 25Q:48Q HTT Exon 1” value stood at 1.12.

A further assay concerns the target T4, WT Human HTT Exon 1 25Q (GST). Briefly: HTT sandwich ELISA, biological repeat 2.
The molecule B1 had an EC50 of 4.52 nM.
Turning to B2, the EC50 is 9.63 nM. Against the preceding molecule, the EC50 is about 2.1-fold higher.
For B3, the EC50 came to 19.3 nM.

A further assay has as its target T3, Mutant Human HTT Exon 1 48Q (GST). Put plainly: HTT sandwich ELISA. This is another data set of the same source.
Turning to B18, the EC50 was 9.2 nM. This lies in the single-digit nanomolar range.
With B19, the EC50 is 7.31 nM.
For the molecule B20, the response was half-maximal at 10.1 nM (EC50).
The molecule B21 showed an EC50 of 11.1 nM.

For a further assay the target is unchanged. Put plainly: HTT sandwich ELISA, experiment 1 (133 nM starting concentration).
B4 registered an EC50 of 21.1 nM.
B5 came in with an EC50 of 19.8 nM.
In turn, B6 yielded an EC50 of 16.2 nM. The EC50 values of the last two molecules are within 1.5-fold of each other.
B7 yielded a 50% effective concentration (EC50) of 15 nM.
With B9, it took 13.4 nM to reach a half-maximal effect (EC50). This EC50 and that of the molecule before are within 1.5-fold of each other.
Still for that read-out and setting: to B10 belongs 12.8 nM.
B11 came in with an EC50 of 8.91 nM. The EC50 values of the last two molecules are within 1.5-fold of each other.

The next assay has the same target. Put plainly: HTT sandwich ELISA, average of repeats.
The molecule B1 yielded an EC50 of 2.4 nM.
The molecule B2 yielded an EC50 of 6.39 nM.
In turn, B3 came in with an EC50 of 17.3 nM.

The next assay has the same target. Briefly: HTT sandwich ELISA, biological repeat 3.
Consider B1, for which the EC50 stood at 4.59 nM.
Take B2: a half-maximal effect (EC50) was put at 4.59 nM.
Turning to B3, it took 17.5 nM to reach a half-maximal effect (EC50).

Another assay has as its target T4, WT Human HTT Exon 1 25Q (GST). Briefly: HTT sandwich ELISA, biological repeat 1.
Turning to B1, the half-maximal effective concentration (EC50) was found to be 5.59 nM.

The record behind these values is patent publication US20260209320A1 (ALCHEMAB THERAPEUTICS, published 2026).
